Laboratory results reported in article doi:10.1101/2023.02.05.527200 (bioRxiv, 2023).
Read-outs that look alike come from different tables or passages of the source.

How the values were obtained:
V5 peptide [1] = biological target: T1, V5 peptide (Parainfluenza virus 5 (strain W3) …); assay: ITC
T1 chain: GKPIPNPLLGLDST

V5 peptide [2] = biological target: T1, V5 peptide; assay: ITC

- Kd (V5 peptide [1]): ~218 nM
- Kd (V5 peptide [2]): 574 nM
B1: NbV5 (VHH)
VHH: EVQLQASGGGFVQPGGSLRLSCAASGTTSFGDTMGWFRQAPGKEREFVSAISRQGDKHYYADSVKGRFTISRDNSKNTVYLQMNSLRAEDTATYYCAEWMNTRREFITPYWGQGTQVTVSS
